Substrate: C[C@@H](O)C(=O)O
Assay: purified protein
Conditions: DCIP as co-substrate, D-lactate 5-300 µM, pH of the kinetic assay not given (optimum pH 8.75)

B1: OsD-LDH2 (Oryza sativa Japonica Group) (protein)
chain: MARRAAAGLLRRHLGPLAAGETLQARGMYPKQYGAANHAFSRFYSIQGQQRSLYGFRTNVETDDTQQSARMNFEVQKRSFSSAAAHVQRNPAYSVLNSDDVSYFKSILGDSGVVQDEDRVSVANMDWMGKYKGSSQLLLLPKSTAEVSKILSYCNSRRLAVVPQGGNTGLVGGSVPVYDEVIISLGGMDKIITFDNVNGILTCEAGCVLENLSSYVENKGFIMPLDLGAKGSCHIGGNISTNAGGLRFIRYGSLHGSVLGLEVVLADGTVLDMLTTLRKDNTGYDLKHLFIGSEGSLGIVTKIAILTPAKLPSTNVAFLSCNDYISCQKLLLAARRSLGEILSAFEFMDRHCINLAMKYLEGVHNPLPVSPFNFYVLIETTGSDESYDKAKLEAFLLRSMEDGLVADGVIAQDISQASNFWRIREGISEASVKVGAVYKYDLSIPVEKLYDIVEEMRSRVGDMGQVLGYGHLGDGNLHLNILSTKYSDKMLAQIEPFVYEWTSKQRGSISAEHGLGLMKAEKIHYSKSSEAVQLMASIKKLLDPNSILNPYKVLPQSVL
- Km: 8.045 ± 1.7 µM
- kcat: 3.27 s⁻¹
- kcat/Km: 407000 M⁻¹ s⁻¹

— paper PMC7393112
